Legend:
cellular Cdc2 = biological target: T1, cellular Cdc2 (Homo sapiens, UniProt P06493); assay: GST pull-down from RKO cell lysate, immunoblot for Cdc2; assay type: binding; conditions: 100 ng protein, 1 mg RKO cellular protein
T1 construct: GST-GADD45 fusion protein were incubated with one mg of RKO cellular protein; endogenous in cells; host or cells: RKO (human colon carcinoma)
Source text: For these experiments, a recombinant glutathione-S-transferase (GST)/GADD45 fusion protein was constructed. The GADD45 insert was PCR amplified from pHul45B2 using the following primers: (SEQ ID NO:3) 5′[…] 3′ and (SEQ ID NO:4) 5′[…] 3′. Products were cloned into a pcrII vector using the TA cloning kit (Invitrogen, San Diego, Calif.). A representative clone was confirmed by sequencing. The selected insert was removed by XhoI and NotI digestion, gel purified using the Wizard DNA Purification Kit (Promega, Madison, Wis.), and ligated into the XhoI/ NotI digested pGEX4T vector (Pharmacia, Piscataway, N.J.). GST-GADD45 fusion protein induction was prepared from freshly transformed BL21 bacterial cells (Novagen). 150 ml of overnight culture was diluted into 1L of LB with ampicillin and grown at 37° C. to late growth phase (OD600 was approximately 0.8). […]
To detect binding of cellular Cdc2 to GST-tagged GADD45, 100 ng of GST or GST-GADD45 fusion protein were incubated with one mg of RKO cellular protein for 4 hr at […]. […] Antibody was detected by a chemiluminescence system in accordance with the instructions of the manufacturer (Amersham, Buckinghamshire, England)
GST-GADD45 fusion protein or GST alone, which were linked to Sepharose beads, were incubated with cellular lysates, isolated, and analyzed by immunoblotting, as described above.

Cdc2/Cyclin B1 complexes = biological target: T2, Cdc2/Cyclin B1 complexes (Homo sapiens, UniProt P06493); assay: ELISA binding of rGADD45 proteins to purified Cdc2/Cyclin B1; conditions: 40 ng protein; for binding to Cdc2/Cyclin B1 in ELISA: 100 ng complex coated
T2 construct: purchased Upstate Biotechnology, Lake Placid, N.Y
T2 sequence (P06493 whole entry, species assumed, one chain of several): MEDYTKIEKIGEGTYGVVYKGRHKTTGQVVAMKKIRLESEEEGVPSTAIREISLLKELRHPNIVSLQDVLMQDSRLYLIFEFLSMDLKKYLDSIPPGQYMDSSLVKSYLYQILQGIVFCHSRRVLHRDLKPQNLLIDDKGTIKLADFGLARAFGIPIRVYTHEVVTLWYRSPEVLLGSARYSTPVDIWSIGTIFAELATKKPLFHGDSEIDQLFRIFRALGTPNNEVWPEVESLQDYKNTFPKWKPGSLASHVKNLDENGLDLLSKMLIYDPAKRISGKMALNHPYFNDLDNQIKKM
Experimental: Immulon II immunoabsorption plates (Dynatech) were coated with 100 ng of Cdc2/Cyclin B1 complexes (Upstate Biotechnology, Lake Placid, N.Y.) in PBS and incubated overnight at 4° C. After rinsing with PBST (PBS with 0.05% Tween-20) and blocking in 5% nonfat milk in PBST, 40 ng of either full length or truncated (both deletion constructs, as described above) rGADD45 protein were added. Following incubation for one hour at room temperature, the plates were washed and an anti-GADD45 antibody (Zymed, San Francisco, Calif.) was added at a 1:1000 dilution in PBST with 0.5% milk (PBSTM). After 1 hr at 25° C., the plates were washed, and HRP-anti-rabbit antibody diluted at 1:1000 in PBS™ was added before final washes and development using the 1-step TMB Solution (Pierce, Rockford, Ill.). Development was halted by the addition of 50 μl of 1M H2SO4, and optical density was measured using a platereader.

Cdc2/Cyclin B1 complex [1] = biological target: T3, Cdc2/Cyclin B1 complex (Homo sapiens, UniProt P06493); assay: Histone H1 kinase assay with purified Cdc2-Cyclin B1 complexes; assay type: biochemical; set-up: purchased Upstate Biotechnology, Lake Placid, N.Y; conditions: for inhibition of histone H1 kinase activity of purified Cdc2/Cyclin B1 complex: 100 ng complex, varying amounts of protein up to 500 ng
Experimental: In one experiment, 100 ng purified Cdc2-cyclin B1 complexes (Upstate Biotechnology, Lake Placid, N.Y.) were incubated with varying amounts of full length rGADD45 or negative control (NAP 1, Tjandra (1998) Curr. Biol. 8:991–1000; Fujii-Nakata (1992) J. Biol. Chem. 267:20980–20986) polypeptides. For full length rGADD45: 0, 10, 20, 50, 100, 200, and 500 ng were used. For the control (NAP1): 0, 100, 200, and 500 ng were used.
Histone H1 kinase assays were then performed. Briefly, purified Cdc2-Cyclin B1 complexes (Upstate Biotechnology, Lake Placid, N.Y.) were incubated with the indicated amounts of rGADD45 or NAP1 proteins for 5 minutes. Histone H1 kinase assays were then performed in the presence of […] of histone H1 (Upstate, Lake Placid, N.Y.), 15 mM MgCl2, 7 mM β-glycerol phosphate, 1.5 mM EGTA, 0.25 mM sodium orthvanadate, 0.25 mM DTT and […] of [g-32P]ATP in 25 μl. After 15 min at 37° C., the reactions were mixed with an equal amount of standard 2× SDS protein denaturation loading buffer, size-separated on a 12% SDS-PAGE gel, and analyzed by autoradiography.
rGADD45 proteins were prepared as described by Carrier (1994) supra. The rGADD45 proteins that were manufactured included, in addition to the full-length polypeptide, truncated forms containing the first 124 amino acid residues (designated “GADD45 Δ125–166”) or the first 71 amino acid residues (designated “GADD45 Δ72–166”) (see sequence and residue notation of SEQ ID NO:2).
For the histone assays comparing the inhibitory activity of full length and truncated GADD45 constructs, instead of loading samples onto the gel for electrophoretic analysis, […] aliquots were spotted on phosphocellulose paper and then washed three times with 0.75% phosphoric acid. After an acetone rinse, the radioactivity was measured by scintillation counting. The results are the average of three separate experiments.
Target sequence in this assay (P06493 whole entry, species assumed, one chain of several): as above

Cdc2/Cyclin B1 complex [2] = biological target: T3, Cdc2/Cyclin B1 complex; assay: Wash off assay: dissociation of immunoprecipitated Cdc2/Cyclin B1 complexes; assay type: biochemical; set-up: One mg of cellular protein was immunoprecipitated with anti-Cyclin B1 antibody and protein A agarose beads; endogenous in cells; host or cells: RKO (human colon carcinoma); conditions: 0-500 ng protein, 15 min at 25 C
Experimental: Since GADD45 inhibited Cdc2/Cyclin B1 activity, but only associated with Cdc2, the possibility was considered that GADD45 acts by dissociating this complex. To test this, anti-Cyclin B1 antibody was used to precipitate cellular Cdc2/cyclin B1 complexes (as above). A “wash off assay” was then carried out in the presence of GADD45. Briefly, RKO cellular protein was immunoprecipitated with anti-Cyclin B1 antibody. The immunoprecipitates were washed 3 times with lysis buffer and twice with 10 mM Tris-HCl (pH 7.5), 10 mM Mg Cl2. Samples were then suspended in […] of 10 mM Tris-HCl (pH 7.5), 10 mM MgCl2. Various amounts of rGADD45 (0, 50, 100, 200, 500 ng) or NAP1 (0, 200, 500 ng) was added to the Cdc2/Cyclin B1 immunocomplexes and incubated for 15 min at 25° C. Following incubation, immunoprecipitates were washed twice with lysis buffer, loaded onto SDS-PAGE gel for electrophoresis, and the membrane was immunoblotted with monoclonal Cdc2 antibody for the detection of Cdc2 protein. Prior to the final immunoprecipitation, an aliquot of the solution was analyzed by immunoblotting with an anti-Cyclin B1 antibody to confirm uniform loading. […] To confirm uniform levels of Cyclin B1, the amount of Cyclin B1 was measured by immunoblotting.
Target sequence in this assay (P06493 whole entry, one chain of several): as the sequence (P06493 whole entry, species assumed, one chain of several) above

Cdk2/Cyclin E = Cdk2/Cyclin E (Homo sapiens, UniProt P24941); assay: Cdk2/Cyclin E histone H1 kinase assay; assay type: biochemical; conditions: up to 3600 ng of full length rGADD45
Cdc2/Cyclin B1 complex [3] = biological target: T3, Cdc2/Cyclin B1 complex; assay: Histone H1 kinase assay with Cdc2/cyclin B1 complex immunoprecipitated from RKO cell lysate; assay type: biochemical; set-up: One mg of cellular protein was immunoprecipitated with anti-Cyclin B1 antibody and protein A agarose beads; endogenous in cells; host or cells: RKO (human colon carcinoma); conditions: RKO lysate immunoprecipitate
Experimental: A monoclonal antibody against cyclin B1 was next used to immunoprecipitate Cdc2/cyclin B1 complex from a lysate of human cells. Antibodies against human Cdc2, c-Myc, and NAP-1 were obtained from Santa Cruz Biotechnology, Santa Cruz, Calif. […] The human colon carcinoma line RKO was grown in modified Ham's F12 medium supplemented with 10% fetal bovine serum.
For immunoprecipitation, exponentially growing RKO cells were lysed on ice for 30 min in lysis buffer consisting of 50 mM Tris-HCl (pH 7.5), 120 mM NaCl, 1% NP-40, […], […] and […] of phenylmethylsulfony fluoride. One mg of cellular protein was immunoprecipitated with anti-Cyclin B1 antibody and protein A agarose beads for 4 hr at 4° C. The immunoprecipitates were washed three times with lysis buffer and then loaded onto a SDS-PAGE gel for immunoblot analysis. The presence of Cdc2/Cyclin B1 was confirmed by immunoblotting.
In contrast, rGADD45 had no effect on Cdk2/Cyclin E histone H1 kinase activity. […]
Target sequence in this assay (P06493 whole entry, one chain of several): as the sequence (P06493 whole entry, species assumed, one chain of several) above

T1 sequence (P06493 whole entry, the tested form may be a part): as the sequence (P06493 whole entry, species assumed, one chain of several) above

Row | Molecule | binding to Cdc2/Cyclin B1 in ELISA (Cdc2/Cyclin B1 complexes) | inhibition of histone H1 kinase activity of purified Cdc2/Cyclin B1 complex (Cdc2/Cyclin B1 complex [1]) | Cdc2 level remaining in Cyclin B1 immune complexes (dissociation of complex) (Cdc2/Cyclin B1 complex [2]) | other results
1 | GST: glutathione-S-transferase alone, linked to Sepharose beads, control [reference compound] |  |  |  | association with cellular Cdc2 (cellular Cdc2): no Cdc2 was detected
2 | GADD45 Δ125–166: truncated rGADD45 containing the first 124 amino acid residues (protein, listed as Homo sapiens) MTLEEFSAGEQKTERMDKVGDALEEVLSKALSQRTITVGVYEAAKLLNVDPDNVVLCLLAADEDDDRDVALQIHFTLIQAFCCENDINILRVSNPGRLAELLLLETDAGPAASEGAEQPPDLHC | significant binding over background level | able to inhibit |  | binding relative to full-length rGADD45 protein (Cdc2/Cyclin B1 complexes): 77%
3 | GADD45 Δ72–166: truncated rGADD45 containing the first 71 amino acid residues (protein, listed as Homo sapiens) MTLEEFSAGEQKTERMDKVGDALEEVLSKALSQRTITVGVYEAAKLLNVDPDNVVLCLLAADEDDDRDVAL | No appreciable binding | failed to inhibit |  | 
4 | NAP-1: negative control protein of similar size and charge as GADD45 (protein, UniProt P55209 2-388, looked up) Nucleosome assembly protein …: ADIDNKEQSELDQDLDDVEEVEEEETGEETKLKARQLTVQMMQNPQILAALQERLDGLVETPTGYIESLPRVVKRRVNALKNLQVKCAQIEAKFYEEVHDLERKYAVLYQPLFDKRFEIINAIYEPTEEECEWKPDEEDEISEELKEKAKIEDEKKDEEKEDPKGIPEFWLTVFKNVDLLSDMVQEHDEPILKHLKDIKVKFSDAGQPMSFVLEFHFEPNEYFTNEVLTKTYRMRSEPDDSDPFSFDGPEIMGCTGCQIDWKKGKNVTLKTIKKKQKHKGRGTVRTVTKTVSNDSFFNFFAPPEVPESGDLDDDAEAILAADFEIGHFLRERIIPRSVLYFTGEAIEDDDDDYDEEGEEADEEGEEEGDEENDPDYDPKKDQNPAEC |  | no appreciable effect | no effect | 
5 | rGADD45: full length recombinant human GADD45 polypeptide (SEQ ID NO:2), bacterially expressed, histidine tag removed (protein, listed as Rattus norvegicus, rat growth arrest and DNA-damage-inducible protein (rGADD45)) MTLEEFSAAEQKIERMDTVGDALEEVLSKARSQRTITVGVYEAAKLLNVDPDNVVLCLLAADEDDDRDVALQIHFTLIRAFCCENDINILRVSNPGRLAELLLLENDKSPAESGGLAQTPDLHCVLVTNPHSSQWKDPALSQLICFCRESRYMDQWVPVINLPER | significant binding over background level | strongly inhibited | did reduce the Cdc2 level | effect on Cdk2/Cyclin E histone H1 kinase activity (Cdk2/Cyclin E): no effect; Cdc2/Cyclin B1 histone kinase activity, % of control (Cdc2/Cyclin B1 complex [1]; 50 ng protein): less than 40%; inhibition of histone phosphorylation by Cdc2/Cyclin B1 (Cdc2/Cyclin B1 complex [1]; larger amounts than 50 ng): strong inhibition; inhibition of enzymatic activity of isolated (immunoprecipitated) Cdc2/cyclin B1 complex (Cdc2/Cyclin B1 complex [3]): progressive inhibition

Source: patent US7125850B2, “Methods of identifying inhibitors of GADD45 polypeptide activity, and inhibitors of such activity” (The United States of America as represented by the …, priority 1999, dated 2006)
